Experimental data as given in the nanobody polyreactivity screen of Harvey et al. (2022).

Experiment: yeast display, Sf9 membrane polyspecificity reagent, FACS + sequencing; frameworks hold sequencing errors
Summary of the method: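 Synthetic nanobody libraries on Saccharomyces cerevisiae BJ5465 were galactose-induced for 36–48 hours, stained 1 hour at 4 °C with 10% biotinylated, detergent-solubilized Sf9 membrane reagent and enriched on streptavidin microbeads. FACS then separated cells into low and high (top ~1%) gates by anti-HA (expression) and streptavidin (reagent binding) fluorescence. Genes were colony-PCR amplified, MiSeq 2 × 250 sequenced and CDR-length filtered. A clone's polyreactivity label is that of its gate of origin.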
In the case of “QVQLVESGGGLVQAGGSLRLSCAASGSIFESYAMGCYRQAPGKERELVAAITKRGGSTYYADSVKGRFTISRDNSKNTFYLQMNSLKPEDTAVYYCNARSPGIGPIYDYWGQGTQVTVSS”, the “polyreactivity (PSR sort gate)” value is reported as “low polyreactivity”. In the case of “QVQLVESGGGLVQAGGSLRLSCAASGFTFGLNAMGWYRQAPGKERELVAGISRNGGRTYYADSVKGRFTISRDNAKNTVYLQMNSLKPDDTAVYYCNKVVSTYWTKSRVQWRYSRYDYWGQGTQVTVSS”, the “polyreactivity (PSR sort gate)” value is reported as “high polyreactivity”. With “QVQLVESGGGLVQAGGSLRLSCADSGSTFWYYVMGWYRQAPGKERELVAVINTRGGSTYYADSVKGRFTISRDNAKNTVYLQMNSLKPEDTAVYYCNARKVKRGKYNYWGQGTQVTVSS” the “polyreactivity (PSR sort gate)” value was “high polyreactivity”. For “QVQLVESGGGLVQAGGSLRLSCAASGSIFFNNTKGWYRPAPGKERELVAAINWSGTSTYYADSVKGRFTISRDNAMNTVYLQMNSLKPEDTEVYYCAADVVRSNFDGTFLYDYDYWGLGTQVTVSS”, the “polyreactivity (PSR sort gate)” value was “low polyreactivity”. With “QVQLVESAGGLVQAGGSLRLSCAASGSIFSRNAMGWYRPAPGKERELVAAITWSGGSTYYADSVKGRFTISRDNAKNTVYLQMNSLKPEDTAVYYCNAKRSSRIKQLEYDYWGQGTQVTVSS” the “polyreactivity (PSR sort gate)” value was “high polyreactivity”. For “QVHLVESGGGLVQAGGSLRLSCAASGRIFIYNAMGWYRPPPGKERELVAAINRSGVSTHYADSVKGRFTISRDNAKNTVFLQMNSLKPEDTAVYYCARTVYGARSYDYWGQGTQVTVSS”, the “polyreactivity (PSR sort gate)” value was “low polyreactivity”. For “QVQLVESGGGLVQAGGSLRLSCAASGRTFYYYAMGWYRQAPGKERELVASITSGDGTYYADSVKGRFTISRDNAKNTVYLQMNSLKPEDTAVYYCAADIFYKFSYYPWYPYRDYYYSGQGTQVTVSS”, the “polyreactivity (PSR sort gate)” value was “low polyreactivity”. For “QVQLEESGGGLVQAGGSLRLSCAASGSTFFIYAMGWYRQAPGKERELVAVIRNIDVRTYYADSVKGRFTISRDNAKNTVYLQMNSLKPEDTAVYYCAADELLDESVDMYYWGQGTQVTVSS”, the “polyreactivity (PSR sort gate)” value was “low polyreactivity”. In the case of “QLQLEESGGGLVQAGGSLRLSCAASANTIYQYAMGRYRQAPGKERELVAAIDWSGGSTYADSVKGRFTISRDNAKNTVYLQMNSLKPEDTAFYYCNASVKPSNVWSRGYDYWGQGTQVTVSS”, the “polyreactivity (PSR sort gate)” value is reported as “low polyreactivity”. For “QVQLVESGGGLVQAGGSLRLSCAASGSILDSNAMGWYRQAPGKERELVAAITSGGSTYYADSVKGRFTISRDNAKNTVYLQMNSLKPEETAVYYCAAAYLGYGAVQPSYEGGYWGQGTQVTVSS”, the “polyreactivity (PSR sort gate)” value was “low polyreactivity”. With “QVQLVESGGGLVQAGGSLRLSCAASGSTFYRYAMGWSRQAPGKERELVAAITWRGGSTYYADSVKGRFTISRDNAKNTLYLQMNSLKPEDTAVYYCAADSYYYRPYHYGYDYWGQGTQVTVSS” the “polyreactivity (PSR sort gate)” value was “high polyreactivity”. For “QVQLVESGGGLVQAGGSLRLSCAASGSTFTLYALGWYRQAPGKERELVASITWSGSPYADSVKGRFTISRDNAKNTVYLQMNSLIPEDTAVYYCNTDPRSVVGWYDYWGQGTQVTVSS”, the “polyreactivity (PSR sort gate)” value was “low polyreactivity”. In the case of “QVQLVESGGGLVQAGGSLRLSCAPSGRILWFYAMGWYRQAPGKERELVAAISSSSGRTYYADSVKGRFTISRDNAKNTVYLQMYILKPEDSAVYYCAATHAVARPLEYDYWGQGTHVTVSS”, the “polyreactivity (PSR sort gate)” value is reported as “low polyreactivity”. With “QVQLVESGAGLVQAGGSLRLSCAASGFIFWRNTMGWYRQAPGKERELVAVITRGGSTYYADSVKGRFTISRDNAKNTVYLQMNSLKPVDTAVYYCNADNVVEGYDRRSARASYRYYYWGQGTQVTVSS” the “polyreactivity (PSR sort gate)” value was “low polyreactivity”. In the case of “QVQLVESGGGLVQAGGSLRLSCAASGYTFSGYAMGWYRQAPGKERELVAAISGSSTRTYYADSVKGRFTITRDYAKNTVYFQMNSLKPEDTAVYYCAARFRHGGPYKYGYWGHGTQVTVSS”, the “polyreactivity (PSR sort gate)” value is reported as “high polyreactivity”. For “QVQHVESVGGLVQAGGSLRLSCAASGSIFSNNVMGWYRQAPGKERELVAAITVSGGRTYYADSVKGRFTISRDNAKNSVYLQMNSLKPEDTAVYYCATGVWKYSPDGDVGDQLSGYDYWGQGTQVTVSS”, the “polyreactivity (PSR sort gate)” value was “low polyreactivity”. With “QVQLVESGGGLVQAGGSLRLSCAASGSIIWYYAMGWYRQAPGKERELVAAISISGSTYYADSVKGRFTISRDNAKNTVYLQMNSLKPEDTAVYYCAARKFFWRSNYDYWGQGTQVTVSS” the “polyreactivity (PSR sort gate)” value was “low polyreactivity”. With “QVQLVESGGVLVQAGGSLRLSCAASGIIFRSNVMGWYRQAPGKERELVAAISTGGGRTYYADSVKGRFTISRDNAKNTVYLQMNILKPEDTAVYYCAAETTPYQPDGFDEYYYWGQGTQVTVSS” the “polyreactivity (PSR sort gate)” value was “high polyreactivity”. For “QVQLVESGGGLVQEGGSLRLSCAASGNIFRAYGMGWYRQAPGKERELVAAIDTTGGRTYYADSVKGRFTISRDNAKNTVYLQMNSLKPEDTAVYYCAVRAPAYPYYRGFDYWGQGTQVTVSS”, the “polyreactivity (PSR sort gate)” value was “low polyreactivity”. In the case of “QVQLVESGGGLVQAGGSLRLSCAASGRIFRKYAMGWYRQAPGTERELVATITLRGGSTYYADSVKGRFTISRDNGKNTVYLQMNSLKPEDTAVYYCATDITPAISVEYDYWGQGTQVTVSS”, the “polyreactivity (PSR sort gate)” value is reported as “high polyreactivity”. For “QVQLVESGGGLVQAGGSLRLSCVASGLTFYYYAMGWYRQAPGKERELVAAISSGGSTYYADSVKGRFTISRDNAKNTVYLQMNSLKPEDTAVYYCNTYRYRVWGLMYWGQGTQVTLSS”, the “polyreactivity (PSR sort gate)” value was “high polyreactivity”. With “QVQLVESGGGLVQAGGSLRLSCAASGRIFRNYAMGWYRQAPGKERELVAAISYTTGSTYYADSVKGRFTISRDNAKNTVYLQMNSLKPEDTAVYYCATTDWYFKFYYWGQGTQVTVSS” the “polyreactivity (PSR sort gate)” value was “high polyreactivity”. For “QVQLVESGGGLVQAGGSLRLSCAASGSIFVNNAMGWYRQAPGKERELVAAIRRSGGNTYYADSVKGRFTISRDNAKNTVYLQLNSLKPEDTAVYYCNVVRRSDSIRAKSRDYWGQGTQVTVSS”, the “polyreactivity (PSR sort gate)” value was “high polyreactivity”. With “QVQLVESGRGLVQAGGSLRLSCAASGRTFHYNVMGWYRQAPGKERELVAAITNTGGSTYYADSVKGRFTISRDNAKNTVYLQMNSLKPEDTAVYYCAAVIWGRRYGAYPYEYWGQGTQVTVSS” the “polyreactivity (PSR sort gate)” value was “low polyreactivity”. In the case of “QVQLVESGGGLVQAGGSLRVSCAASGNIFYYYAKGWSRQAPGKERELDAAISKRGGSTYYADSVKGRFTISRDIAKNTVYLQMNSLKTEVTAVYYCAADGGYADYDYWGQGTQVTVSS”, the “polyreactivity (PSR sort gate)” value is reported as “high polyreactivity”. In the case of “QVQLVESGGGLVQAGGSLRLSCAASGRTSIWNSMGWYRQAPGKERELVASISWSGGSTYYADSVKGRFTISRDNAKNTVYLQMNSLKPEDTAVSYCAKTAYFLVFNEHLHNKRYDSWGQGTQVTVSS”, the “polyreactivity (PSR sort gate)” value is reported as “low polyreactivity”. With “QVQHEESGVGLVQAGGRLRVSCAASGSTFAANTMGWYRTAPGKERELVAAITVRGGSTYYADSVKGRFSISRDNAKNTVYLQMISLKPEDTAVYYCAAERPPYGYLVVGFVSTQYYYWGQGTQVTVSS” the “polyreactivity (PSR sort gate)” value was “low polyreactivity”. In the case of “QVQHVESGGGLVQAGGSLRLSCAASGIIFYDYTMGWYRQAPGKERELVAVITNGDTTYYADSVKGRFTISRDNAKNTVYLQMNSLKPEDTAVYYCAADKRPPYILDYWGQGTQVTVSS”, the “polyreactivity (PSR sort gate)” value is reported as “high polyreactivity”. With “QVQLVESGGGLVKAGCSLRLICAASGSIFYQYAMGWNRQAPGNVRELVAAITRRGSRTYYADSVKGRFTISRDNAKNTVYLQMNSLKPEDTAVYYCAAGSFYGIYYYRTDDYWGQGTQVTVSS” the “polyreactivity (PSR sort gate)” value was “high polyreactivity”. For “QVQLVESGGGLFQAGGSLRLSCAASGSTFKRYAMGWYRQAPGKERELVAAITLSGGNTYYADSVKGRFTISRYNAKNTVYLQMNSLKPEDTAVYYCAARRYRGYDYWGQGTQVTVSS”, the “polyreactivity (PSR sort gate)” value was “high polyreactivity”. With “QVQLVESGGGLVQAGGSLRLSSAASGSTIYYYAMGLYRQAPGKEREFVATITQSGGSTYYADSVKGRFTISRDNAKNTVYLQMNSLKPEDTAVYYCAADSWEVDEADIYNSWGQGSQVTVSS” the “polyreactivity (PSR sort gate)” value was “low polyreactivity”.
